Experimental data taken from the supplement of paper PMC10724198.
Several values for one entry are separate records, joined by “and”; a condition that tells them apart may be missing. Identical values can stand only once. ± gives the standard deviation of the averaged measurements.

The sequences below were run on Saccharomyces cerevisiae (assay: protein stability index of tFT-peptide fusion in wild type (PSI (0-1 scale)); higher = more stable (slower turnover)). Details: genetic background: wild type.
Protocol: (§1)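 MPS profiling in S. cerevisiae of two library types built from selected 12-aa C-degron peptides (IN1, IN2, LN1, LN3, VN2, R1-R5, W1-W3, Atg1 and Rpa12 C-termini): saturation mutagenesis libraries and C-terminal +1 capping libraries (13 aa). Each peptide is fused to the C-terminus of a sfGFP-mCherry timer, after a GGGS linker. Cells are FACS-sorted into 8 mCherry/sfGFP bins and sequenced. PSI runs from 0 (unstable) to 1 (stable), measured once in wild type and in the das1Δ or doa10Δ background.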
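Wherever protein stability index of tFT-peptide fusion (C-terminal peptide) is given: PSI is a weighted mean of sequencing reads over stability bins, variants kept only with over 10 reads, mCherry proximal and sfGFP distal, peptide attached via GGGS linker.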
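Wherever protein stability index of tFT-peptide fusion in deletion strain of DOA10 is given: PSI per variant is the weighted mean of its sequencing read distribution over the sorted stability bins, counting only variants with over 10 reads summed across bins.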
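Wherever protein stability index of tFT-peptide fusion in wild type is given: PSI derived as read-weighted mean over the 8 sorting bins, only variants exceeding 10 total reads kept, mCherry placed adjacent to the peptide and sfGFP distal.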

In order of rising protein stability index:
1. QVVYLSCVACIN  0.0122
2. RLIQNLPVQFLN  0.029
3. RLIQQLPVQFLN  0.0315
4. RLIRPLPVQFLN  0.0343
5. RLICPLPVQFLN  0.0408
6. RLIQPLPVQYLN  0.0462
7. RLIQPLPVQFFN  0.0467
8. RLIQPLPCQFLN  0.0496
9. VSMRWTFRYWVN  0.0543
10. RLQQPLPVQFLN  0.0653
11. RLYQPLPVQFLN  0.068
12. PDKRNWLIKLLN  0.0714
13. RCIQPLPVQFLN  0.0766
14. RLIQPLCVQFLN  0.0777
15. PDKWNHLIKLLN  0.0782
16. RLIQPSPVQFLN  0.0855
17. RLIQPLGVQFLN  0.0859
18. PDKRSHLIKLLN  0.0872
19. RLIQPFPVQFLN  0.09
20. PDKRNHVIKLLN  0.0941
21. RLIQPLPVEFLN  0.0996
22. PDKRNHLIQLLN  0.102
23. PDKRNHLIKRLN  0.104
24. PSLFASFWRVVG  0.109
25. VRIAVGGWRLVG  0.11
26. VRGRVGGWRLVG  0.121
27. PDKRNVLIKLLN  0.125
28. PSLDASFWRVVG  0.128
29. PDLRNHLIKLLN  0.13
30. PSLAYSFWRVVG  0.134
31. PSLAATFWRVVG  0.135
32. AITLPFCPLLLR  0.138
33. AITLPMCCLLLR  0.139
34. PSLACSFWRVVG  0.139
35. PSLRASFWRVVG  0.141
36. VRGAVYGWRLVG  0.141
37. VRGACGGWRLVG  0.143
38. VRGAVRGWRLVG  0.146
39. PSRAASFWRVVG  0.149
40. VRGAVFGWRLVG  0.149
41. PYLAASFWRVVG  0.151
42. VRGAVGYWRLVG  0.152
43. PSWAASFWRVVG  0.154
44. VRGAVGGWLLVG  0.156
45. VRGAVNGWRLVG  0.157
46. PDKRNHLIKLVN  0.158
47. PSLAASFWRAVG  0.158
48. PSGAASFWRVVG  0.16
49. VRGAVGFWRLVG  0.16
50. PVLAASFWRVVG  0.161
51. VRGAVGGWRLVG  0.161
52. PTLAASFWRVVG  0.162
53. PSLAASFWRVCG  0.163
54. VRGAVGWWRLVG  0.163
55. PSLAASFWRVLG  0.164
56. PDKRNHLQKLLN  0.168
57. VRGAVEGWRLVG  0.19
58. PDKRNHLIMLLN  0.193
59. RLIQPLPVQFCN  0.195
60. PDKRNHWIKLLN  0.196
61. PSLPASFWRVVG  0.197
62. RLIQPLPVQVLN  0.204
63. PDKRNHLIKLLI  0.206
64. VRGAGGGWRLVG  0.209
65. VRWRVGLWRGAS  0.209
66. YRGAVGGWRLVG  0.218
67. VRGAVGGWRLHG  0.226
68. VRGAVGGWRLAG  0.233
69. AITIPMCPLLLR  0.236
70. VRGAVGGWRLYG  0.239
71. WKILRQKMNHQN  0.244
72. PSLAASFWREVG  0.258
73. RLIQPLPVSFLN  0.262
74. VRGARGGWRLVG  0.273
75. PDKRNHLITLLN  0.315
76. AITLPKCPLLLR  0.335
77. RLIQPLPVQALN  0.36
78. AITLFMCPLLLR  0.364
79. VRGAVGGWRAVG  0.365
80. PSLAASFWLVVG  0.38
81. PDKRNHLIPLLN  0.405
82. RLIQPLPVQFLQ  0.447
83. PDKRNHLIKLQN  0.453
84. AITHPMCPLLLR  0.455
85. PSLAASFIRVVG  0.46
86. PSLAASFVRVVG  0.528
87. PSLAASFWRVVP  0.539
88. RLIQPLPVQFNN  0.554
89. PDKRNHLIKLPN  0.592
90. RLIQPLPVQDLN  0.6
91. PDKRNHLIKPLN  0.607
92. RLIQPLPVQFLD  0.633
93. VRGAVGGWRLVR  0.651
94. PSLAASFERVVG  0.655
95. RLIQPLPVQFLNR  0.659
96. PSLAASFWRVVGK  0.666
97. PSLAASFWRVVGT  0.674
98. VRGAVGGHRLVG  0.675
99. PSLAASFWRVPG  0.677
100. VRGAVGGWRLVGT  0.678
101. VRGAVGGWRLPG  0.683
102. PSLAASFHRVVG  0.687
103. PSLAASFWGVVG  0.697

For PDKRNHLIKLLN, the protein stability index was 0.141 and 0.117.

Each sequence was assayed on Saccharomyces cerevisiae (assay: protein stability index of tFT-peptide fusion (C-terminal peptide) (PSI (0-1 scale)); higher = more stable (slower turnover)). Details: genetic background: wild type; temperature: 30 C.

In order of falling protein stability index:
1. VRGAVGGWRLVG  0.228 ± 0.082
2. PDKRNHLIKLLN  0.194 ± 0.031

Each sequence was assayed on Saccharomyces cerevisiae (assay: protein stability index of tFT-peptide fusion in deletion strain of DOA10 (PSI (0-1 scale)); higher = more stable (slower turnover)). Details: not given.
Protocol: as §1

In order of rising protein stability index:
1. AITLPMCCLLLR  0.602
2. AIALPMCPLLLR  0.632
3. AITIPMCPLLLR  0.639
4. AITLFMCPLLLR  0.644
5. AITLPKCPLLLR  0.663
6. AITLPFCPLLLR  0.667
7. AITHPMCPLLLR  0.676
